Experimental data from the supplement of paper PMC9170038.

Test system: MS2 coat protein
Test: apparent KD of MS2 coat protein; designed switch direction (-1 OFF switch, 1 ON switch): 1; higher = weaker reporter binding
Procedure, shortened: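 RNA switches sharing common flanks were transcribed by stalled E. coli RNA polymerase on Illumina chips. A doubling series of SNAP-549-labelled MS2 coat protein, from 0.7 or 1.5 nM to 3 µM, was applied in Tris-HCl pH 7.5 buffer with KCl, MgCl2, BSA, DTT, tRNA and Tween-20. Each step lasted 0.8–1.5 h at the bottom of the series and 10–20 min at the top. Normalised cluster fluorescence was curve-fitted, giving apparent KD as the per-design median over clusters.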

[1] = input ligand: microRNA oligo, concentration not stated
[2] = Eterna round: R95, input ligand: FMN 200 uM
[3] = Eterna round: R95, input ligand: microRNA oligo, concentration not stated
[4] = Eterna round: R95, input ligand: none

| Sequence | apparent KD of MS2 coat protein (input ligand: FMN 200 uM) | apparent KD of MS2 coat protein [1] | apparent KD of MS2 coat protein (input ligand: none) | apparent KD of MS2 coat protein [2] | apparent KD of MS2 coat protein [3] | apparent KD of MS2 coat protein [4] |
| --- | --- | --- | --- | --- | --- | --- |
| UGGUACAUGGGAGGAUAUGGGUUGAUAACAUGAGGAUCACCCAUGUUAAAUAUGCCGAGAGGCAACUAGAAGGCCCAUGUACCU [JL SSNG1 3.00] (Eterna round: R96, puzzle: Same State NG 2) | 28.5 nM | 380 nM | 644 nM |  |  |  |
| ACAAGCUUUUCUGCAUCGAAAGGUUGAUAACAUGAGGAUCACCCAUGUAAAUAUGAAAACGAUGCUCCUCGUCUUAU [JR_SHM208A_Sub095] (puzzle: Sensor for hsa-mir-208a) |  |  |  | 37.3 nM | 15.1 nM | 44.7 nM |
| GCGGAGAGGUCAGGAUAUCCAUGGAAGACACAUGAGGAUCACCCAUGUGGGAGGGAAACCAGGAGGGAGAAGGGACCGGGACGC [ssng2 v2 c] (Eterna round: R96, puzzle: Same State NG 2) | 11.4 nM | 10.3 nM | 13.3 nM |  |  |  |
| AAAAGACAUGAGGAUCACCCAUGUAUGAAAAGUACAGGAUAUCACGAGCUAAGAAGCGAGUGAGAAGGGUGAAAAU [Sogedi] (puzzle: Same State 1) |  |  |  | 519 nM | 69.1 nM | 109 nM |
| UUAAAACAUGAGGAUCACCCAUGUAAUAAUAUGGGAGGAUAUCAGAAUGUAUGUAUGUAAUGAGAAGGCCUAAAUG [Mat - Same State 1 - Mod of Eli - D77] (puzzle: Same State 1) |  |  |  | 70.4 nM | 156 nM | 398 nM |
| GGAGUCGGCACUGAGGAUAUUCAUAUUUAAACAUGAGGAUCACCCAUGUAGGCCAGAAGGCCUUGGGAGAAGGCAGGUCGGCUCG [salish99_ss2_r3_084] (puzzle: Same State 2) |  |  |  | 22.5 nM | 154 nM | 241 nM |
| UUGAAUAAUUAAGGAUAUCGAGUACAUAUGUUAAACAUGAGGAUCACCCAUGUGGGUUGCGGUAUCGAGAAGGUAAAAGAAAAG [Mat - Same State NG 2 - JL mod - D60] (Eterna round: R96, puzzle: Same State NG 2) | 32.6 nM | 21.9 nM | 35.8 nM |  |  |  |
| GACAAUCUAUCUGAGGAUAUCAUGAGAAGAACAUGAGGAUCACCCAUGUGCAGGAAAACUGCAUAUGAGAAGGCAGAUAGAUUGA [Mat - Same State 2 - Mod - D16] (puzzle: Same State 2) |  |  |  | 43.7 nM | 1600 nM | 1820 nM |
| CUGAGCAGUCAAGGAUAUCACGUCGAAUAGACGUGAGAAGGUGAUUAAUACAUGAGGAUCACCCAUGUAAUACAUGAAGCUCAG [SSNG1/11-A1] (Eterna round: R96, puzzle: Same State NG 1) | 25.6 nM | 33.5 nM | 46.6 nM |  |  |  |
| AUAAGACACAUGAGGAUCACCCAUGUGGCCGUAGUCGGCUCACAGGAUAUCAAGCUACUAGUGCUUGAGAAGGGUGAGACAAGC [Raar Mod] (Eterna round: R96, puzzle: Same State NG 3) | 57.3 nM | 190 nM | 323 nM |  |  |  |
| GAGUGGAAGUAAGGAUAUAUAAUGAUAAUCACAGUAGAAGGUACUAACAUGAGGAUCACCCAUGUAGGACUAUACCAGAGAGGG [Parity 44 - Jieux - Same State NG 1] (Eterna round: R96, puzzle: Same State NG 1) |  | 12.3 nM |  |  |  |  |
| UAGAGAGGAAGCGAGGAUAUCGUGGGAGGAACAUGAGGAUCACCCAUGUGUGAUGUUGAGAGGAACGAGAAGGCGCAGGAAAGUA [JR_SS2_Sub078] (puzzle: Same State 2) |  |  |  | 83.3 nM | 83.1 nM | 143 nM |
| AUUACUAAUGCAGGAUAUGAUUAACAUGAGGAUCACCCAUGUGGUGUUGUGAGUAAGGAGAGUGAUCAGAAGGGCAUUUUUUUU [JMF's solution 29] (Eterna round: R96, puzzle: Same State NG 2) | 518 nM | 362 nM | 325 nM |  |  |  |
| AGCUAAAACGAAGGAUAUACAAACAUGAGGAUCACCCAUGUAUACAUGAUUUAUUGUGAUCACAUGUAGAAGGUCGUACUAACA [SameState NG2 #19] (Eterna round: R96, puzzle: Same State NG 2) |  | 633 nM |  |  |  |  |
| CAGCACUAUCGAGAGGAUAUGCGGUGAUGGACAUGAGGAUCACCCAUGUUAGCGGUAGCAUCACGGCAGAAGGCUCUGCUGCUGC [Soteed Omei mod 39] (Eterna round: R96, puzzle: Same State 2) | 19 nM | 21.5 nM | 28.5 nM |  |  |  |
| GAGUAGUUGGGAGGAUAUGCAUUGUUAUAGAAUGCAGAAGGUUUUAACAUGAGGAUCACCCAUGUAGGACUAUUCCUGUGUAUC [Parity 71 - Jieux - Same State NG 1] (Eterna round: R96, puzzle: Same State NG 1) | 12.9 nM | 11.9 nM | 15.6 nM |  |  |  |

| Sequence | apparent KD of MS2 coat protein (input ligand: FMN 200 uM) | apparent KD of MS2 coat protein [1] | apparent KD of MS2 coat protein (input ligand: none) | apparent KD of MS2 coat protein [2] | apparent KD of MS2 coat protein [3] | apparent KD of MS2 coat protein [4] |
| --- | --- | --- | --- | --- | --- | --- |
| UCAACUUCUUUUAGUGUGUUGCCAGUUUUACAUGAGGAUCACCCAUGUUAAGUAUUGUGGUAUUUUGUUCGUCUUAA [JR_SHM208A_Sub073] (puzzle: Sensor for hsa-mir-208a) |  |  |  | 15.6 nM | 14.3 nM | 16.3 nM |
| AUAAGUUCGAUGCUCGUCUCUCCGUACAAACAUGAGGAUCACCCAUGUGAUUGAGCAGUAGCCCAAUCAGUAUGGCC [Tileus] (puzzle: Sensor for hsa-mir-208a) |  |  |  | 45.1 nM | 23.9 nM | 47.9 nM |
| GUAGCAUACCGAGGAUAUUCAUAAUACAUGAGGAUCACCCAUGUAAGGCCACAUUAGUGGCCUUGGGAGAAGGCGGAAUGCUAC [Xeonanis - 20 Mod43] (Eterna round: R96, puzzle: Same State NG 2) | 13.7 nM | 35.7 nM | 44 nM |  |  |  |
| AGUCCAGCGAAAGCUGGACAAAGGCAUGUACAUGAGGAUCACCCAUGUUCAUGUACAAGCUUUUUGCUCGUCUUAAA [JL mod - D95 - 3] (puzzle: Sensor for hsa-mir-208a) |  |  |  | 147 nM | 14 nM | 194 nM |
| ACCCAAAGUAUAUGGGAACAAGCUUUUUAACAUGAGGAUCACCCAUGUACUCGUCUUAUAAGCAGUCGAAAGACUGC [hsa-mir-208a sensor: 100] (Eterna round: R96, puzzle: Sensor for hsa-mir-208a) | 557 nM | 14.3 nM | 877 nM |  |  |  |
| AGUCCAGCCUGAGCUGGACAAAAGCAUGUACAUGAGGAUCACCCAUGUCAUGUACAAGCUUUUUGCUCGUCUUAAAU [Mat - hsa-mir-208a - Mod of JL - D22] (puzzle: Sensor for hsa-mir-208a) |  |  |  | 585 nM | 16.4 nM | 584 nM |
| UUACUCAUGUAAGGAUAUGCAGCCGUUUCGGCUGCAGAAGGUACUAUAAUACAUGAGGAUCACCCAUGUCUCUAUUAUUUGGUG [salish99_SSNG1_r04_923] (Eterna round: R96, puzzle: Same State NG 1) | 111 nM | 51.1 nM | 84.4 nM |  |  |  |
| GGUCCAGCCUGAGCUGGACAAAAGCAUGUACAUGAGGAUCACCCAUGUUCAUGUACAAGCUUUUUGCUCGUCUUACU [salish99_208a_r3_085] (puzzle: Sensor for hsa-mir-208a) |  |  |  | 681 nM | 15 nM | 553 nM |
| GGUGCUGUCACAGGAUAUCAUGCGGAAAUCGCGUGAGAAGGGUGGACUCUGUCAUUCACGGAGGACAUGAGGAUCACCCAUGUG [SS NG10LRO20] (Eterna round: R96, puzzle: Same State NG 1) | 68.5 nM | 5.67 nM | 20.2 nM |  |  |  |
| GGUAGGUUACUACCAGACAUGAGGAUCACCCAUGUAAGUGGGAAGGAUAUGGUACCUUUUAGGUACCAGAAGGUCCAUAUAGUU [JL SSNG3 1.43] (Eterna round: R96, puzzle: Same State NG 3) | 253 nM | 429 nM | 1080 nM |  |  |  |
| AAGAAACAUGAGGAUCACCCAUGUCGAAAUAACACAGGAUAUCGCACGACUACGGUGCGGCGAGAAGGGUGAGGAA [Estere] (puzzle: Same State 1) |  |  |  | 54.7 nM | 78.4 nM | 94.7 nM |
| GCGGAGAGGUAAGGAUAUCCAUGGCAUAGACAUGAGGAUCACCCAUGUAGGAGACGAAUUAGAAGGGAGAAGGUACCGGGACGC [AK SSNG2-V2-19] (Eterna round: R96, puzzle: Same State NG 2) | 175 nM | 111 nM | 168 nM |  |  |  |
| GGGUGUGGAAGGAAAGAUAGGAAAAGGAAACAUGAGGAUCACCCAUGUGAAGGAAGAAAGGGAGCUCGUCUUAUAAG [JR_SHM208A_Sub001] (puzzle: Sensor for hsa-mir-208a) |  |  |  | 27.4 nM | 22.8 nM | 23.5 nM |
| AAUAUUAAUGCAGGAUAUGAUUAACAUGAGGAUCACCCAUGUGGUGUUGUGAGUAAGGAGAGUGAUCAGAAGGGCAUUUUUUUU [JMF's solution 36] (Eterna round: R96, puzzle: Same State NG 2) | 648 nM | 349 nM | 529 nM |  |  |  |
| GGUGGGUUGCUACCGACACAUGAGGAUCACCCAUGUUUUGGGAAGGAUAUGGUACCUAUUUGGUACCAGAAGGUCCCGUUGGUG [salish99_SSNG3_r04_707] (Eterna round: R96, puzzle: Same State NG 3) | 136 nM | 136 nM | 133 nM |  |  |  |
